Tested on: K4 kissing-loop RNA reporter
Assay: apparent KD of K4 kissing-loop reporter; higher = weaker reporter binding
Settings: Eterna round: R107
Method: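 RNA-MaP round R107: designed RNA switches with theophylline, tryptophan, arginine or FMN aptamers are transcribed on-chip within common flanks. They are titrated with a labelled K4 kissing-loop RNA reporter in RNA-MaP buffer (100 mM Tris pH 7.5, 80 mM KCl, 4 mM MgCl2), without ligand or with the indicated ligand. Median apparent KD per design.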

[1] = input ligand: theophylline 20 uM
[2] = input ligand: tryptophan 2.4 mM
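Also: bound reporter read as fluorescence of individual clusters on recovered sequencing chips by microscopy, with normalized cluster intensities fitted with a binding model.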

| Sequence | apparent KD of K4 kissing-loop reporter (input ligand: FMN 200 uM) | apparent KD of K4 kissing-loop reporter (input ligand: arginine 13.2 mM) | apparent KD of K4 kissing-loop reporter (input ligand: none) | apparent KD of K4 kissing-loop reporter [1] | apparent KD of K4 kissing-loop reporter [2] |
| --- | --- | --- | --- | --- | --- |
| GUGAGGAGUGGUGUUGAUUAGGGAGCGGAAGGAGCGCCGAGGAAGGCAGGUAGGUCGCCGGAUUAUAGUGAUGUUAUGAAGAGGG [ExArg.K] | 482 nM | 523 nM | 551 nM | 886 nM | 338 nM |
| UCCUAGGUCUUCAGGCGAAAGCCCUGCGAAGGAGCGUGCGAAAGCACAGGUAGGUCGCGCAGUGAUGUUGCACCUAGGUAAUAAA [#SwitchBubble 21 #K4Late] | 843 nM | 111 nM | 268 nM | 115 nM | 140 nM |
| CGUGCCCGGCCGGAUACCAGUGACCCGCUGGGAACCGCGGGCCCAGAGUGAUGUUCGGGACACCCUUGGCAGCCGCCUGGGCUGC [#2 Same State - Theophylline B Attempt #14 (HarryS)] | 540 nM | 395 nM | 757 nM | 375 nM | 415 nM |
| GGACAAGUUUCCGAUACCAGCCUUUAUGCUGGACUAGCUUGAUCAGUGGCUAGUGAUGUUGGCCCUUGGCAGCGGGACUCUUCGG [theeternabot_exclusion_KL_Theo_B_10] | 221 nM | 204 nM | 217 nM | 238 nM | 218 nM |
| AUUAAUAACUGAGGAUAUCGUUUUACUGUAGUGAUGUUACAGAAAAUUCACAUUAUAAUUUCUAUUCGAGAAGGCAGAAUAAUUA [JR_ExcFMNB_Sub014] | 106 nM | 74.6 nM | 65.2 nM | 71.9 nM | 65.1 nM |
| AAGUGAUGUUGUAGUGAUGUUGUGAUGUUGCAGGAUAUAUAGUGAUGUAGAAGGGUAAGUACUUAUUUUUUUUUUGAGUUAUGUU [crrczrmullin] | 85.5 nM | 33 nM | 62.8 nM | 45.9 nM | 65.4 nM |
| GCAGUGAUGUUGCGCAGGUACAGUGGAGUGCGAGGACCGGUACGGCCGCCACUCGUACAGAACUAGCUAAUAUAUGGAUAGGUGA [VIII] | 287 nM | 358 nM | 315 nM | 347 nM | 280 nM |
| UGAUAGGACAGAAGGAGCGGUAGUGAUGUUGCCAAAAGGUUAAGGUGUCAAAAGACACCCUACCAGGUAGGUCGCUGUCCUAUCU | 188 nM | 207 nM | 193 nM | 193 nM | 179 nM |
| CCUAUCUCAUACGAUACCAGUCAAUAUAAACGAGUGAUGUUCGAAAUAAUAUGCCAUCACGACCCUUGGCAGCGUAUGGGAUAGG [Ex Theophylline B K4 6] | 158 nM | 88.8 nM | 141 nM | 214 nM | 126 nM |
| UGGCGGCAAGGGUUAUUGGAAAGUAUUCGACGAGGACCGGUACGGCCGCCACUCGAACACCAGUGAUGUUGGUCUGGCUUAAGCC [Exclusion Tryptophan A GF 21] | 276 nM | 245 nM | 285 nM | 275 nM | 279 nM |
| ACCUGUAGCAGAAGGAGCGACAGUUAUUCUGAUAGAACUCUGAGUGAUGUUCAGAACAACUGUCAGGUAGGUCGCUGAUACAGGU [Arg B Ex t8a] | 577 nM | 370 nM | 560 nM | 512 nM | 583 nM |
| AUGGUUGUCGUAGGAUAUGUAGGAUAUUCCUAUAGCAGUGAUGUUGCUAAUAUCAAUGGAAGAAGGACAGAAGGACGAUAACCAC [KL-SSFMN-B3 #analogue #DoubleAptamer] | 113 nM | 120 nM | 113 nM | 118 nM | 113 nM |
| GGUAGCAUGGCGGCCGCCACUGAGCAAGUGAUGUUUGCCUCCCUACCCUAGUGUCGAGAGUAUAUCAGGACCGGGCCAUGCUACC | 188 nM | 132 nM | 149 nM | 164 nM | 136 nM |
| UUCAGACUACUACUAGACAGUAGUAUAUACUAGGAUAUCCAGAUAUGGAGAAGGAGUGAUGUUCCCUAGUAGUAGUGAAUUAAAU [KL-XFMN-A5] | 661 nM | 380 nM | 387 nM | 375 nM | 335 nM |
| UAUUGAUUGUCAGGAUAUCGUAAACGAGUGAUGUUCGUAUAUUGACGAUAGUCAAUUCUAUCUGAACGAGAAGGGACAUUAUUUA [JR_SSFMNB_Sub009] | 318 nM | 301 nM | 389 nM | 351 nM | 308 nM |
| UGAUAGGACAGAAGGAGCGGAAGUGAUGUUUCCAAAAGGUAAAGGUGUCAAAAGACACCCUUCCAGGUAGGUCGCUGUCCUAUCU [ArgBX 12 #Palindromic #SwitchBubble #StaticStem] | 119 nM | 124 nM | 113 nM | 126 nM | 103 nM |
| GCCGUAGAUUGAAGGAGCGGACAGAUACGGGAAUCCAGUGAUGUUGGAAGGUAACUACUAGUCCAGGUAGGUCGCAAUCUACGGC | 143 nM | 128 nM | 136 nM | 146 nM | 129 nM |
| ACAGGAUCGAAGAUCCUGAGCAGUCAGGUCCGAGGACCGGUACGGCCGCCACUCGGAGUGAUGUUCCGAAGACUGCAAAAUAAAA [#SwitchBubble 4] | 853 nM | 455 nM | 1110 nM | 968 nM | 338 nM |
| UGUCAUUGGUCGGCCGCCACUAGAAGGUCAAAGACCAAAGAGUGAUGUUCUUAGACGAAAGUCACUAGGACCGGGACCGAUGACU [TrypBS 7 #SwitchBubble #K4Middle] | 931 nM | 641 nM | 971 nM | 746 nM | 200 nM |
| GGAUAGGAUAGAGGAUAUGGUAUAGGCAAGAAUAACUUGUCAUGUAAAUCCAUGAGGAGUGAUGUUCCAGAAGGCUGUCCUAUCG [MatMod 9 - Jieux - Exclusion - FMN B] | 620 nM | 179 nM | 231 nM | 168 nM | 123 nM |

Reference: the supplement of paper PMC9170038
